{"source": "the RNAGym collection of RNA variant scans (doi:10.1073/pnas.2313332121)", "parents": {"B1": {"name": "TPR 5TU (parent)", "chain": "GGAUCUUCUCGAUCUAACAAAAAAGACAAAUCUGCCACAAAGCUUGAGAGCAUCUUCGGAUGCAGAGGCGGCAGCCUUCGGUGGCGCGAUAGCGCCAACGUUCUCAACUAUGACACGCAAAACGCGUGCUCCGUUGAAUGGAGUUUAUCAUG"}}, "note": "Fewer inactive variants are shown than the library holds."}
{"variants_of": "B1", "experiment": "polymerase ribozyme fitness, log enrichment relative to wild type (log ratio); higher = more active; in vitro selection for triplet polymerase activity", "how_it_was_run": "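For each subunit of a heterodimeric triplet polymerase ribozyme, a mutant library was built by PCR and transcribed, then taken through a single in vitro selection round in triplicate. Selection involved annealing to a biotinylated primer, the partner subunit and triplets, incubation frozen at −7 °C, gel excision of extended constructs, capture on streptavidin beads and RT-PCR. Genotypes were retained after Illumina sequencing of inputs and outputs only with ≥10 input reads and ≥1 read in each output. Fitness is defined as the logarithm of a genotype's enrichment relative to wild-type enrichment, using inverse-variance-weighted averages across replicates, with the logarithm taken to base 2.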"}
{"variant": "U7C G48U G84A G117C", "polymerase ribozyme fitness (log ratio)": "≤ -4.2"}
{"variant": "C8G A52U C95U U104G G140U", "polymerase ribozyme fitness (log ratio)": "≤ -4.2"}
{"variant": "U7G U44G U55G C99A", "polymerase ribozyme fitness (log ratio)": "≤ -4.2"}
{"variant": "C8U C54A", "polymerase ribozyme fitness (log ratio)": -3.8}
{"variant": "U6A U13G C96A C105U", "polymerase ribozyme fitness (log ratio)": -2.15}
{"variant": "C8G G59C G86C G117U", "polymerase ribozyme fitness (log ratio)": "≤ -4.2"}
{"variant": "C8U C93U C99G", "polymerase ribozyme fitness (log ratio)": "≤ -4.2"}
{"variant": "C8U A60U", "polymerase ribozyme fitness (log ratio)": -3.79}
{"variant": "U7A C36U C95G", "polymerase ribozyme fitness (log ratio)": "≤ -4.2"}
{"variant": "U6G A120C G136C", "polymerase ribozyme fitness (log ratio)": -3.69}
{"variant": "U7G C10U C35U A64G C96A C129A", "polymerase ribozyme fitness (log ratio)": "≤ -4.2"}
{"variant": "U7C C27G C57G G88C G124A U134G", "polymerase ribozyme fitness (log ratio)": "≤ -4.2"}
{"variant": "U6C C10A U13A C35G C36G A37G G81U G83C", "polymerase ribozyme fitness (log ratio)": "≤ -4.2"}
{"variant": "U6G G88A", "polymerase ribozyme fitness (log ratio)": -4.11}
{"variant": "U7C G25U U31C G62C C75U G117U A122G", "polymerase ribozyme fitness (log ratio)": "≤ -4.2"}
{"variant": "U7G C27U G48C G59C C76U C79A G83U C93A", "polymerase ribozyme fitness (log ratio)": "≤ -4.2"}
{"variant": "C8U G92C U111C", "polymerase ribozyme fitness (log ratio)": "≤ -4.2"}
{"variant": "U6G U56A G70C C85G A107U U144G", "polymerase ribozyme fitness (log ratio)": "≤ -4.2"}
{"variant": "U6G G94C C123A", "polymerase ribozyme fitness (log ratio)": 0.0628}
{"variant": "C8U A22U A37C C57G C99A U148A G152A", "polymerase ribozyme fitness (log ratio)": "≤ -4.2"}
{"variant": "U7A A24G C32A G88C C99G U104G G140C", "polymerase ribozyme fitness (log ratio)": -4.07}
{"variant": "C8G C57A G84U C114U U148C A150C", "polymerase ribozyme fitness (log ratio)": "≤ -4.2"}
{"variant": "C8A C27U G70A C96U", "polymerase ribozyme fitness (log ratio)": "≤ -4.2"}
{"variant": "C8U C27U A37C U55A C87G U111A C118G G124A", "polymerase ribozyme fitness (log ratio)": "≤ -4.2"}
{"variant": "U6G C10G", "polymerase ribozyme fitness (log ratio)": -3.01}
{"variant": "C8U U56G G59A G65A G84U A91G", "polymerase ribozyme fitness (log ratio)": "≤ -4.2"}
{"variant": "U7G A20C U56A C72G A73G C85U C93G A98G A115U", "polymerase ribozyme fitness (log ratio)": "≤ -4.2"}
{"variant": "C8G A21C", "polymerase ribozyme fitness (log ratio)": -3.31}
{"variant": "C8U A17U G42C C116U C125U U146G", "polymerase ribozyme fitness (log ratio)": "≤ -4.2"}
{"variant": "U6C G117C", "polymerase ribozyme fitness (log ratio)": -0.247}
{"variant": "C8U C18G C38A C76U U78C A106U A110C C132G U135C U144C U148A C149G", "polymerase ribozyme fitness (log ratio)": "≤ -4.2"}
{"variant": "C8A U31G A37G G42A G83A", "polymerase ribozyme fitness (log ratio)": "≤ -4.2"}
{"variant": "U6G A16U C18U G67C G88C", "polymerase ribozyme fitness (log ratio)": "≤ -4.2"}
{"variant": "U7G A64C A122G", "polymerase ribozyme fitness (log ratio)": "≤ -4.2"}
{"variant": "U7G C93G U139A", "polymerase ribozyme fitness (log ratio)": "≤ -4.2"}
{"variant": "U6C C8U A17U A39G G83A U101A", "polymerase ribozyme fitness (log ratio)": "≤ -4.2"}
{"variant": "U6C G124C C129A", "polymerase ribozyme fitness (log ratio)": -4.16}
{"variant": "U7G C57U G59C G88A C93A A115C", "polymerase ribozyme fitness (log ratio)": "≤ -4.2"}
{"variant": "U7C A41C C87U G126A", "polymerase ribozyme fitness (log ratio)": -3.82}
{"variant": "U7G C35U U45A A52U G59A C93G G128A G141C", "polymerase ribozyme fitness (log ratio)": "≤ -4.2"}
{"variant": "C8G G67C G92U C99U A107U U148A", "polymerase ribozyme fitness (log ratio)": "≤ -4.2"}
{"variant": "U6G C18G C36U C96G A98G", "polymerase ribozyme fitness (log ratio)": -2.92}
{"variant": "U6A G86U", "polymerase ribozyme fitness (log ratio)": -1.41}
{"variant": "U7G A12C C51G A64C C123U C132G", "polymerase ribozyme fitness (log ratio)": "≤ -4.2"}
{"variant": "C8U C93A", "polymerase ribozyme fitness (log ratio)": "≤ -4.2"}
{"variant": "U7A A19U A49U G88U G100U", "polymerase ribozyme fitness (log ratio)": "≤ -4.2"}
{"variant": "U6G G50U C85U C116U G152U", "polymerase ribozyme fitness (log ratio)": -3.7}
{"variant": "U7A A110C A138U", "polymerase ribozyme fitness (log ratio)": "≤ -4.2"}
{"variant": "C8G G70C C93U C99U U148G", "polymerase ribozyme fitness (log ratio)": "≤ -4.2"}
{"variant": "C8U G94A", "polymerase ribozyme fitness (log ratio)": -3.24}
{"variant": "U6C C32U G84A G88C U111C A150U", "polymerase ribozyme fitness (log ratio)": "≤ -4.2"}
{"variant": "U6G A20C A22G A26C C57A C87A A120G", "polymerase ribozyme fitness (log ratio)": "≤ -4.2"}
{"variant": "U6G A37G U53A G80U U90C C149A", "polymerase ribozyme fitness (log ratio)": "≤ -4.2"}
{"variant": "U6C A23G U61A", "polymerase ribozyme fitness (log ratio)": "≤ -4.2"}
{"variant": "U7G A26C U44A G74C A115C", "polymerase ribozyme fitness (log ratio)": "≤ -4.2"}
{"variant": "C8A A17U A39U C85U U139A", "polymerase ribozyme fitness (log ratio)": "≤ -4.2"}
{"variant": "U7C G50C C51U C87U G152U", "polymerase ribozyme fitness (log ratio)": "≤ -4.2"}
{"variant": "U6G A26U C93U", "polymerase ribozyme fitness (log ratio)": -2.39}
{"variant": "U7C A16C C35U C63U A121G G133C", "polymerase ribozyme fitness (log ratio)": "≤ -4.2"}
{"variant": "C8U C14G U33G C51G C54U C57A U77G C87G G136U", "polymerase ribozyme fitness (log ratio)": "≤ -4.2"}
{"variant": "C8G A20C", "polymerase ribozyme fitness (log ratio)": -3.59}
{"variant": "C8A G34C U45A G50A U55A G74A A91G U102G G140C G141A", "polymerase ribozyme fitness (log ratio)": "≤ -4.2"}
{"variant": "U6G C14G A16C A20U A21U G42A U61A A64G G71A C85U C87U C129U G136A", "polymerase ribozyme fitness (log ratio)": "≤ -4.2"}
{"variant": "C8U A26U U44A C85U A115U C118A G133U", "polymerase ribozyme fitness (log ratio)": "≤ -4.2"}
{"variant": "C8U A19G A39U C54U U61A G71A U77A G80C G88U G112C A113G C125G A150U", "polymerase ribozyme fitness (log ratio)": "≤ -4.2"}
{"variant": "U6C A24U A28C C35U A37U U90G C93A C131U U145C", "polymerase ribozyme fitness (log ratio)": "≤ -4.2"}
{"variant": "C8U C95U", "polymerase ribozyme fitness (log ratio)": -2.24}
{"variant": "U6C A29U A41C G42U G59C C85U G100U A107G G124A", "polymerase ribozyme fitness (log ratio)": "≤ -4.2"}
{"variant": "U6G A73U G81C A98C C99U U144C", "polymerase ribozyme fitness (log ratio)": -3.62}
{"variant": "U6C U53A G59A G83A U90G C118U C131U A137G A138C", "polymerase ribozyme fitness (log ratio)": "≤ -4.2"}
{"variant": "U7C C10U A40C C85A A89C G100A C116A", "polymerase ribozyme fitness (log ratio)": "≤ -4.2"}
{"variant": "U6A U44A C57G G70A G80A C85U G126U C131G", "polymerase ribozyme fitness (log ratio)": "≤ -4.2"}
{"variant": "U6G A26U G84C", "polymerase ribozyme fitness (log ratio)": -2.97}
{"variant": "C8A U31A U56G C63A G68U C99A G128U", "polymerase ribozyme fitness (log ratio)": "≤ -4.2"}
{"variant": "U7A A24C A47C U109C A120U", "polymerase ribozyme fitness (log ratio)": "≤ -4.2"}
{"variant": "C8U A52U C54U G83A C118A U127G", "polymerase ribozyme fitness (log ratio)": "≤ -4.2"}
{"variant": "C8U U33A C38U G62A", "polymerase ribozyme fitness (log ratio)": "≤ -4.2"}
{"variant": "U6G A37G C38G C95U C116U G136U U139A U146C", "polymerase ribozyme fitness (log ratio)": "≤ -4.2"}
{"variant": "C8A C32A G62A U82G G143A", "polymerase ribozyme fitness (log ratio)": "≤ -4.2"}
{"variant": "U7A A29C A60U C76G C95U G133A G141A", "polymerase ribozyme fitness (log ratio)": "≤ -4.2"}
{"variant": "U7A A22C C85U", "polymerase ribozyme fitness (log ratio)": -4.04}
{"variant": "U6A G58C G94A", "polymerase ribozyme fitness (log ratio)": -0.942}
{"variant": "C8A C85G C103U A110G U134G C149G", "polymerase ribozyme fitness (log ratio)": "≤ -4.2"}
